# Patent US20200318093A1
# T1: ovalbumin (Sigma), P01012
# T1 chain: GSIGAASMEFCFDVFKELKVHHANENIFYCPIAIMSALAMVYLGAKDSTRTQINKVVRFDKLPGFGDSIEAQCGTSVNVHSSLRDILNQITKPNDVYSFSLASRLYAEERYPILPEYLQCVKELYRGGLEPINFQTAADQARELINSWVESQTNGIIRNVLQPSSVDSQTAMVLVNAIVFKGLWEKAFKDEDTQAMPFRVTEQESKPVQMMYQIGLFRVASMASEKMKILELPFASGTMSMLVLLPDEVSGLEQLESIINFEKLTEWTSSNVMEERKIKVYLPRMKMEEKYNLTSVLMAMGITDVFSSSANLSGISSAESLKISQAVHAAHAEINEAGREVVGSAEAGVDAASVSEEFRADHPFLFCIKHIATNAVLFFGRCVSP
# How the values were obtained:
# [1] = biological target: casein sodium ("MIPRODAN", Nippon Shinyaku); experiment: cell-based or functional assay
# [2] = biological target: Rice proteins
# [3] = biological target: Soybean proteins
# [4] = biological target: bovine-derived alkaline gelatin (Sigma)
# [5] = biological target: casein sodium ("MIPRODAN", Nippon Shinyaku)
# [6] = biological target: cornmeal gluten (Sigma)
# [7] = biological target: fish-derived gelatin (Nippi)
# [8] = biological target: milk whey protein ("BiPro", Davisco)
# [9] = biological target: T1, ovalbumin (Sigma), P01012
# [10] = biological target: porcine-derived acidic gelatin (Sigma)
# [11] = biological target: skim milk powder (Yotsuba Milk Products, low heat type)
# [12] = biological target: α-casein (Sigma)
# [13] = biological target: α-lactalbumin (Sigma)
# [14] = biological target: casein sodium ("MIPRODAN", Nippon Shinyaku); experiment: cell-based or functional assay; remark: listed apart in the source
# [15] = biological target: Insulin B chain (Sigma)
molecule,measurement,setting,value
protein asparaginase of Leifsonia xyli AJ111071 (NITE P-01649) (enzyme),"released ammonia (3 h reaction with culture supernatant, control subtracted)",[1],0.289 mM
protein asparaginase of Luteimicrobium album AJ111072 (NITE P-01650) (protein) AVTADDGSTPGTAAYLEDDYDFGDQAVPLANIGGIRGEMTGRIYLPTTAGAHPTVILLHGRHSSCTVPTGGGSVSNPNRWPCIAPQVNIPSYKGYESTAQNLATHGYAVVSISANAINANDNQLAPDYGAQARGQLVLDTLAMLRKANAGEPVSFHDAATDRTVDLASALAVSTEAEDLGSAPTSATNPGDAITPADLVGAFDLDDVGLMGHSRGGEGVVSAVNLNQKLAKPFGIKSVLPLAPVDFGRETAADTNMLVILPYCDGDVSNQQGQHFSDDSRYAYDDDSLRSTLWVMGADHNFFNSVWTPGKYPLSTSDDWGATSTDAVCGPLAPTNVRLSADDQYDVGVAVMSAWFRLTLGGEDQFLPLFDGSADPTLTSVPSAKLWSTATAPATKRADIEAFTANTSRVRVYGSATESVCASAGGRTLPQDAQPCATASALRSTSAMPHWTPASFAPNVPASPMGRFLWTSVSGSTAGSIRVTVPAAARDASEQDALTFKTAPDESVLTGTDLTVTVVDGHGATWSSAVSALNAGAVKRLPISGSTTLNKIVLQQVSVPVSTLAGSIDVSDVREVRFAGATGADGTATGGAYLSDLAFVSSGVGTVAGIASVPTVNVASTVVEEGSSVDEARVAVVLDQPADRTVSAWFTLMGSTADSSNAGLAAQKVTFQPGQTCQAVTVTILGNTVAGAAATTAYKADVSAPDGVIVGAAQFGTFTVREDDALTSGGALAPAVGTQGDVCAEYAARSVVQELTTSGDAVAGSHVTLTGSGYRVGESVAFTDGDAVLGTVLAGADGTAALDWAVPADARVGGHDVTAVGAGSARTAKATVTVRSATTTTLAIAPAAPAVGKAVTLTATVAGPDTAGTVTFADGSTVLGRVAVKDGRAALVVSGGFDAGTHTLTAAFGQTATAEGSVSPAVTFTLVKGKTTTVFVLAATRTTYGTAVAGRIVVGGADGGVATITVGNVVRSVRLDAHGAGSFTVPGTLKPATYRVTASYAGSRTLDTSSARASLTVLKAAPKVTLSAPATARKGATVTVTVKVVGVKGGVRPTGKAVVKLGGKAVKTVSVPSSGVVKVKVRLASAGTAKVTAAYQGSAYYTAASAAAKVKVKVVTK,Amount of generated ammonia,[2],0.04 mM
same,Amount of generated ammonia,[3],0.98 mM
same,Amount of generated ammonia,[4],0.73 mM
same,Amount of generated ammonia,[5],2.98 mM
same,Amount of generated ammonia,[6],0.41 mM
same,Amount of generated ammonia,[7],1.27 mM
same,Amount of generated ammonia,[8],1.17 mM
same,Amount of generated ammonia,[9],0.01 mM
same,Amount of generated ammonia,[10],2.23 mM
same,Amount of generated ammonia,[11],1.22 mM
same,Amount of generated ammonia,[12],4.69 mM
same,Amount of generated ammonia,[13],1.84 mM
same,released ammonia amount (0.68 U/ml enzyme solution),[14],1 mM
same,released ammonia amount (2.7 U/ml enzyme solution),[14],1.3 mM
protein asparaginase of Leifsonia xyli AJ111071 (NITE P-01649) (protein) LPVRRRIALTVAAALIPVVALTTAPAALAAPAPDPVVASGSDWAVTTSPGGYLVTLDLDEPLPMVDDAPTLVVDGEPIGLATESADGLTLGVVTTDPAVASASSVTKGWSSGADDKAAETPEAPATPAVPENTTLTEQLKSFAQLVAVEDPADLGSYTVTEAEYDFGDQAVPLAAIGGIRGELTGKMYLTNATGARPTVVLLHGRHTSCSGTGANPLRWPCGPTQMNIRSYLGYEGTARALASRGYNVLSIAANAVNSNDNQLALDYGAQARGRLVLDTLGMLAKATAGDAVAYDDITTATDTVPSTTTTRTLDEALLRATTRADQPAAASGITAASLKGRFDLGHVGIMGHSRGGEGVVSAATLNQALAKPYGIESVLPLAPVDFGRMTLPDVPTAVFLPYCDGDVSNQQGQHFIDDSRHAFDDDVLRSAVWVMGANHNFFNTVWTPGLYPAATGDDWRTTDTTSTCATTNPTRMTAAQQYQVGVSYMTGFFRLTMGGETRFQSLFDGSVKPSTASTAYADVRTMATQPASKTSLVNDFTETSSLVRVSGGATAAVCTNLTGRTVPQSLPFCATTKASAQVPHWTPGSFAPNVPEFPVTRFLWTGASTTDPAVPSTGELRVTVPAKDRDASRHSQLTLKTAPDEAVQTGTDFRITVVDGAGKTFATTASAVNPLAVNRMPGGTNTTLNKVVLQQLTIPTSTITGIDLTDVREVRLTAAIGADGTGTGGVYLSDLAFDTPSVGTAVAQTRTTVNVAPTTVEEGDGPGTADVAVYLNRAEKSAVTAYVSVIGSATAAVGIGMEKVAFAPGETCKAVTVPTLGNTATSAAPSSAFKVSVTNSTNAVMGASAFANLTVREDDGVTGAAPALAPVGAQGDVCTELAAATTPVPLETSAEDVAPGGSFTLRATGYRAGETVAFRYGATDLGTQVAATDGTASVVVTVPEDADLGPAEATASGSGSGRAATVSVSVLAPTETTVTVTPAKPTAGQ,N-terminus sequence of the insulin B chain after 8 h reaction (protein sequencer),[15],asparagine of the third residue from the N-terminus of the insulin B chain was converted into aspartic acid by deamidation
